Source: US7803758B2, “I kappa B kinase complex as a target for the treatment of Huntington's disease” (California Institute of Technology, priority 2004, dated 2010)

Key:
[1] = tested on: PC12 cells expressing mutant HDx1; experiment: Mutant HDx1 toxicity in PC12 cells treated with IKK inhibitor; assay type: cell-based; details: Example 5
Method: To examine the effects of a small molecule IKK inhibitor on mutant Htt toxicity, PC12 cells expressing mutant HDx1 are treated with herbimycin or another known IKK inhibitor plus β-gal and NF-κB reporter in six-well plates, essentially as described above in Example 4.

[2] = tested on: NF-κB-dependent gene expression; experiment: NF-κB luciferase gene reporter assay in inducible PC12 cells expressing mutant HDx1; assay type: cell-based
Source text: Gene Reporter and transfections. The pNF-κB-luciferase with five enhanced elements and the control plasmid without NF-κB binding sites, pCIS-CK luciferase, were used for gene reporter assays (Strategene, La Jolla, Calif.). To normalize for transfection efficiency between samples, a β-galactosidase (β-gal) construct expressed from the EF-1α promoter (Invitrogen, Carlsbad, Calif.), was included in all gene reporter assays. PC12 cells were transfected with control or NF-κB-luciferase plasmids using lipofectamine-plus. On the following day, cells were left untreated or stimulated for 8 hr with 1 μg/ml ecdysone to induce expression of HDx1. […] Luciferase activity was measured by addition of the substrate (Promega, Madison, Wis.) to equal amounts of protein from each sample. […] All gene reporter assays were corrected for transfection efficiency by normalizing the units if β-gal in the extracts, using the β-gal assay (Invitrogen). β-gal values from the samples were divided by the β-gal value from control, 25polyQ, noninduced PC12 cells (no expression of HDx1) and multiplied by each corresponding luciferase reading. […]
Gene Reporter and transfections. […] Protein concentration was determined by the BCA method (Pierce, Rockford, Ill.). […] Bound p65 was detected with a goat anti-rabbit antibody conjugated to horseradish peroxidase. […]

IKKβ subunit = molecular target: T1, IKKβ subunit (Homo sapiens, UniProt O14920); details: Ogino et al., Mol. Pharmacol. 2004; cited from earlier work
T1 sequence (O14920 1-756): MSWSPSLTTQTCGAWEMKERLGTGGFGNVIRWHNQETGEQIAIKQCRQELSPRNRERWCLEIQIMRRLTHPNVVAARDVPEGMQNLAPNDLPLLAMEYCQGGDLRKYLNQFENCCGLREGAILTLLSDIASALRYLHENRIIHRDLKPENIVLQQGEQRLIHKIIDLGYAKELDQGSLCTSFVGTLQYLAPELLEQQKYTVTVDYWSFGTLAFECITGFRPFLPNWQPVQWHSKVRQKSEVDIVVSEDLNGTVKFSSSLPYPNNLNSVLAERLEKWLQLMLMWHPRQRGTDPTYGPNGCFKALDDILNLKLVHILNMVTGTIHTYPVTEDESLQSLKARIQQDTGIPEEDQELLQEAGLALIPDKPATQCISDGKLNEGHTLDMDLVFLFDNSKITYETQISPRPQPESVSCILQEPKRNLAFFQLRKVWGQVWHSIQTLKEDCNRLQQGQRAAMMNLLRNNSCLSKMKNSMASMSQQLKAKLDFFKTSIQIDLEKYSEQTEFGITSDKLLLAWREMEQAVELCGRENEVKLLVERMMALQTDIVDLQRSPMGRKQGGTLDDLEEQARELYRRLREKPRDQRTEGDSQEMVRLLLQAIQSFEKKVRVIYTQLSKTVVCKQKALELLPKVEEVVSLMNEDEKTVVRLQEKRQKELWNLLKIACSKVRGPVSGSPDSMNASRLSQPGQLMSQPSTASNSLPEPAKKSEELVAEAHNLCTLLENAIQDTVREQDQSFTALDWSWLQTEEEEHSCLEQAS

mutant HDx1 = experiment: Confocal examination of mutant HDx1 aggregation in HEK-293 cells; assay type: cell-based, Human; details: early time point before widespread toxicity
Method: (§1) Transfection of HEK-293 cells with mutant HDx1-EGFP alone (Kasantsev et al., 1999) or with one of the following constructs, full-length (F), DN, and deleted C terminus (DC) of IKKγ (provided by Dr. E. Zandi, University of Southern California) Rothwarf et al., 1998) or ΔF-βTrCP, was done using lipofectamine-plus reagents (Invitrogen). For histochemistry, cultured cells were fixed in 4% paraformaldehyde for 30 min, permeabilized with 70% methanol for 1 hr., and washed with PBS. Cells were stained with anti-HA for IKKγ or anti-myc for ΔF-βTrCP (Cell Signaling, Beverly, Mass.) followed by a goat anti-mouse antibody conjugated by Alexa 594 (Molecular Probes, Eugene, Oreg.). Toto-3, a dimeric cyanine, was used to stain nuclei (Molecular Probes). […] Mutant HDx1 toxicity was assessed by counting the number of condensed GFP-positive bodies, which are remnants of […] deoxynucleotidyl transferase-mediated biotinylated UTP nick endlabeling (TUNEL)-positive (TUNEL^+) cells (Khoshnan et al., 2002), using a florescence microscope. […] Apoptotic cells were labeled with terminal deoxynucleotidyl transferase using digoxigenin-labeled nucleotides and detected by anti-digoxigenin antibody and rhodamine-conjugated secondary according to the instructions provided by the manufacturer (Chemicon, Temecula, Calif.).

HEK-293 cells [3] = experiment: Mutant HDx1 toxicity in transfected HEK-293 cells (count of condensed GFP-positive bodies); assay type: cell-based, Human; details: 48 hr after transfection
Method: as §1

striatal MSNs = experiment: Brain slice neurodegeneration assay (biolistic transfection of MSNs with HDx1); assay type: cell-based; details: P7 rat brain slices; for effect on MSNs expressing WT HDx1: coexpression with WT HDx1; for neurodegeneration / toxicity of mutant HDx1 in MSNs: coexpression with mutant HDx1, 7 d
Method: Brain slice preparation. All animal experiments were performed in accordance with the Institutional Animal Care and Use Committee and Duke University Medical Center Animal Guidelines. Postnatal day 7 (P7) CD Sprague Dawley rats (Charles River Laboratory, Raleigh, N.C.) were decapitated, and the brains were surgically removed and placed in ice-cold Neurobasal medium (Invitrogen). The tissue was fixed to a chilled, stainless steel Vibratome stage using cyanoacrylate glue (Krazy-Glue) and covered with Neurobasal medium. Coronal brain slices (250 μm thick) were cut by Vibratome (VT1000S; Leica, Nusslock Germany) as described previously (Edgerton and Reinhart, 2003). Brain slices were kept at 37° C. in 5.0% CO2 for 1 hr.
Bolistic transfection. Gold particles (1.6 μm gold microcarriers; BioRad, Hercules, Calif.) were used as DNA carriers for transfection as described previously (Lo et al., 1994). Briefly, gold particles were sonicated in 0.05 M spermidine in the presence of plasmid DNA. The gold-DNA mixture was washed three times in 100% ethanol before being loaded into Helios plastic cartridges (Bio-Rad) according to manufacturer's instructions. Slices were transfected using a Bio-Rad Helios gun with a cyan fluorescent protein (CFP)-tagged Htt fragment, together with yellow fluorescent protein (YFP) as a morphometric marker. In a number of experiments, one of the IKKγ constructs was also cotransfected with the Htt-construct and YFP. CFP-tagged Htt fragments were exon-1-N-terminal fragments containing either a short-Q (Q23) or a long-Q (Q148) polyQ domain.
Brain slice neurodegeneration assay. For each condition, transfections were performed on […] brain slices per experiment. Protein expression and neurodegeneration (loss of processes, shriveling of the soma) were assay 2-7 d after transfection using a Leica fluorescence microscope with appropriate filters for YFP and CFP. The total area of the striatum was identified, and transfected MSNs were identified by their morphology. CFP fluorescence was used to determine expression of Htt fragments and their aggregation into macro-inclusions. Each experiment involved three to twelve transfected brain slices per condition, and the data are means from six independent experiments for each condition.

HEK-293 cells [4] = experiment: TUNEL staining of HEK-293 cells transfected with mutant HDx1; assay type: cell-based, Human; details: HEK-293 cells cotransfected with mutant HDx1
Method: as §1

GST-HDx1 = molecular target: T2, GST-HDx1 (Homo sapiens, UniProt P42858, INS38QQQQQQQQQQQQQQQQQQQQQQQQQQQQQQ); experiment: GST pull-down binding of in vitro-translated IKKγ constructs to GST-HDx1; details: [35S] methionine-labeled construct, GST-HDx1 with expanded polyQ
T2 construct: GST-HDx1 with 20 or 51 polyQs, with and without polyproline domains, was obtained from Dr. E. Wanker; made in house; host or cells: Escherichia coli
Method: Protein-protein interaction. In vitro binding of IKKγ to mutant HDx1 was performed using glutathione S-transferase (GST)-pull down assays. GST-HDx1 with 20 or 51 polyQs, with and without polyproline domains, was obtained from Dr. E. Wanker (Max Plank Institute, Berlin, Germany). These constructs were expressed in Escherichia coli and purified with glutathione beads (Amersham Biosciences, Piscataway, N.J.) according to manufacturer's instructions. IKKγ constructs were transcribed and translated in rabbit reticulocytes in the presence of [^35S] methionine (Promega). Briefly, 5 μg of GST-HDx1 bound to beads was incubated with 10 μl of each labeled in vitro-translated IKKγ produce in 500 μl of Tris-based buffer containing 10% glycerol and 6 mM DTT and rocked at room temperature for 2 hr. Beads were washed five times in the same buffer. Bound IKKγ was examined by SDS-PAGE, followed by autoradiography. Recombinant anti-HDx1 intrabodies (Khoshnan et al., 2002) were expressed and examined similarly from binding to GST-HDx1. For competition assays, 10-fold excess in vitro-translated intrabodies were added to GST-HDx1 plus deleted C terminus IKKγ and processed as above.

T2 sequence (P42858 with tags, fused parts or gaps with the stated changes): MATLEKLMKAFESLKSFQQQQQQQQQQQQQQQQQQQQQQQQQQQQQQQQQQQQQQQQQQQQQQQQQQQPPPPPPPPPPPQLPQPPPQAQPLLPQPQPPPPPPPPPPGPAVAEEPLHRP

Row | Molecule | toxicity of mutant HDx1 in cultured cells [1] | NF-κB expression ([2]; PC12 cells expressing mutant HDx1, Example 5) | NF-κB activation (IKKβ subunit) | aggregation of mutant HDx1 (mutant HDx1) | toxicity of mutant HDx1 (condensed GFP+ bodies) (HEK-293 cells [3]) | effect on MSNs expressing WT HDx1 (striatal MSNs) | neurodegeneration / toxicity of mutant HDx1 in MSNs (striatal MSNs) | mutant HDx1-induced NF-κB-dependent gene expression ([2]; PC12 cells, ecdysone-induced HDx1, with or without NGF) | number of TUNEL+ cells (HEK-293 cells [4]) | binding of IKKγ construct to HDx1 (GST-HDx1)
1 | CO[C@H]1[C@@H](OC)C[C@H](C)[C@@H](OC)C2=CC(=O)C=C(NC(=O)/C(C)=C/C=C\[C@H](OC)[C@@H](OC(N)=O)/C(C)=C/[C@@H]1C)C2=O [Herbimycin, Herbimycin A] | blocks the toxicity | reduce NF-κB expression | abrogates NF-κB activation |  |  |  |  |  |  | 
2 | IKKγ: full-length regulatory subunit of the IKK complex, expressed from a construct |  |  |  | promotes aggregation of mutant HDx1 | little effect on toxicity | no obvious effect | no significant effect on neurodegeneration |  |  | 
3 | WT-βTrCP: wild-type E3-ubiquitin ligase βTrCP |  |  |  |  |  |  | does not influence the toxicity of mutant HDx1 in MSNs |  |  | 
4 | DN-IKKγ: IKKγ with the first 134 amino acids removed; N-terminally truncated form that interferes with IKK activity (protein, UniProt Q9Y6K9 135-419, looked up, fragment) MAEDKASVKAQVTSLLGELQESQSRLEAATKECQALEGRARAASEQARQLESEREALQQQHSVQVDQLRMQGQSVEAALRMERQAASEEKRKLAQLQVAYHQLFQEYDNHIKSSVVGSERKRGMQLEDLKQQLQQAEEALVAKQEVIDKLKEEAEQHKIVMETVPVLKAQADIYKADFQAERQAREKLAEKKELLQEQLEQLQREYSKLKASCQESARIEDMRKRHVEVSQAPLPPAPAYLSSPLALPSQRRSPPEEPPDFCCPKCQYQAPDMDTLQIHVMECIE |  |  |  | no apparent effect on HDx1 aggregation | strongly reduces the toxicity of mutant HDx1 | no obvious effect | significantly neuroprotective | blocks basal and NGF-induced NF-κB-dependent gene expression | significantly reduced | diminishes binding to HDx1
